Measurements published in patent publication US20110301335A1 (published 2011).

T1: human TNFR1 on MRC-5 cells (human, UniProt P19438 30-455)
T1 sequence (looked up): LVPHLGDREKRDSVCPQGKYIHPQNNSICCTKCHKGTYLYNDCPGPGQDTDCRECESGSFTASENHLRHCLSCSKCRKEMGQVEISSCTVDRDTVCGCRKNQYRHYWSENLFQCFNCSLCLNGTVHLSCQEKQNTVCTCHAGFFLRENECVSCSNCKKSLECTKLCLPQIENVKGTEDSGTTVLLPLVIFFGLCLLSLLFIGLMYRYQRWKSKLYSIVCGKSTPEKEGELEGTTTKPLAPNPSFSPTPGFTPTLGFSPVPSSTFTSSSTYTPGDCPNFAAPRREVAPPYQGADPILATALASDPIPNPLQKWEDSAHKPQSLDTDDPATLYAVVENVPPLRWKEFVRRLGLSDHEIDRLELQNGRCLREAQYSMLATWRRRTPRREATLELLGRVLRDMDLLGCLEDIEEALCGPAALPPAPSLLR


biological target: T1, human TNFR1 on MRC-5 cells; experiment: cell-based or functional assay

MRC-5 EC50, fold of the EC50 of DOM1h-574-16 | MRC-5 EC50 | Binder
~200 fold |  | DOM1h-574 (other) VH: EVQLLESGGGLVQPGGSLRLSCAASGFTFVKYSMGWVRQAPGKGLEWVSQISNTGGHTYYADSVKGRFTISRDNSKNTLYLQMNSLRAEDTAVYYCAKYTGRWEPFDYWGQGTLVTVSS
 | 10 nM | DOM1h-574-8 (other) VH: EVQLLESGGGLVQPGGSLRLSCAASGFTFVKYSMGWVRQAPGKGPEWVSQISNTGGHTYYADSVKGRFTISRDNSKNTLYLQMNSLRAEDTAVYYCAIYTGRWEPFDYWGQGTLVTVSS

biological target: T1, human TNFR1 on MRC-5 cells; experiment: cell-based or functional assay; remark: another data set of the same source

ND50 (MRC5) | MRC5 (ND50 in nM) | Binder
16 nM |  | DMS0168 (bispecific antibody) EVQLLESGGGLVQPGGSLRLSCAASGFTFVKYSMGWVRQAPGKGLEWVSQISNTADRTYYAHSVKGRFTISRDNSKNTLYLQMNSLRAEDTAVYYCAIYTGRWVPFEYWGQGTLVTVSSASTSGPSDIQMTQSPSSLSASVGDRVTITCRASQSIIKHLKWYQQKPGKAPKLLIYGASRLQSGVPSRFSGSGSGTDFTLTISSLQPEDFATYYCQQGARWPQTFGQGTKVEIKRAAAEQKLISEEDLN
 | 1.9 nM | DMS0124 (bispecific antibody) EVQLLESGGGLVQPGGSLRLSCAASGFTFVKYSMGWVRQAPGKGLEWVSQISNTADRTYYAHSVKGRFTISRDNSKNTLYLQMNSLRAEDTAVYYCAIYTGRWVPFEYWGQGTLVTVSSASGGGGSGGGGSGGGGSDIQMTQSPSSLSASVGDRVTITCRASQWIGSQLSWYQQKPGKAPKLLIMWRSSLQSGVPSRFSGSGSGTDFTLTISSLQPEDFATYYCAQGLMKPMTFGQGTKVEIKR
17 nM |  | DMS0188 (bispecific antibody) EVQLLESGGGLVQPGGSLRLSCAASGFTFVKYSMGWVRQAPGKGPEWVSQISNTGDRTYYADSVKGRFTISRDNSKNTLYLQMNSLRAEDTAVYYCAIYTGRWEPFDYWGQGTLVTVSSASTSGPSDIQMTQSPSSLSASVGDRVTITCRASRPIGTMLSWYQQKPGKAPKLLILFGSRLQSGVPSRFSGSGSGTDFTLTISSLQPEDFATYYCAQAGTHPTTFGQGTKVEIKRAAAEQKLISEEDLN
2.7 nM |  | DMS0169 (bispecific antibody) EVQLLESGGGLVQPGGSLRLSCAASGFTFVKYSMGWVRQAPGKGLEWVSQISNTADRTYYAHSVKGRFTISRDNSKNTLYLQMNSLRAEDTAVYYCAIYTGRWVPFEYWGQGTLVTVSSASTSGPSDIQMTQSPSSLSASVGDRVTITCRASRPIGTMLSWYQQKPGKAPKLLILFGSRLQSGVPSRFSGSGSGTDFTLTISSLQPEDFATYYCAQAGTHPTTFGQGTKVEIKRAAAEQKLISEEDLN
12 nM |  | DMS0163 (bispecific antibody) EVQLLESGGGLVQPGGSLRLSCAASGFTFVKYSMGWVRQAPGKGPEWVSQISNTGDRTYYADSVKGRFTISRDNSKNTLYLQMNSLRAEDTAVYYCAIYTGRWEPFDYWGQGTLVTVSSASTSGPSDIQMTQSPSSLSASVGDRVTITCRASRPIGTMLSWYQQKPGKAPKLLILAFSRLQSGVPSRFSGSGSGTDFTLTISSLQPEDFATYYCAQAGTHPTTFGQGTKVEIKRAAAEQKLISEEDLN
 | 1.8 nM | DMS0121 (bispecific antibody) EVQLLESGGGLVQPGGSLRLSCAASGFTFVKYSMGWVRQAPGKGLEWVSQISNTADRTYYAHSVKGRFTISRDNSKNTLYLQMNSLRAEDTAVYYCAIYTGRWVPFEYWGQGTLVTVSSASGGGGSGGGGSGGGGSDIQMTQSPSSLSASVGDRVTITCRASRPIGTTLSWYQQKPGKAPKLLILWNSRLQSGVPSRFSGSGSGTDFTLTISSLQPEDFATYYCAQAGTHPTTFGQGTKVEIKR
 | 1.6 nM | DMS0111 (bispecific antibody) EVQLLESGGGLVQPGGSLRLSCAASGFTFVKYSMGWVRQAPGKGLEWVSQISNTADRTYYAHSVKGRFTISRDNSKNTLYLQMNSLRAEDTAVYYCAIYTGRWVPFEYWGQGTLVTVSSASTDIQMTQSPSSLSASVGDRVTITCRASRPIGTTLSWYQQKPGKAPKLLILWNSRLQSGVPSRFSGSGSGTDFTLTISSLQPEDFATYYCAQAGTHPTTFGQGTKVEIKR
 | 1.3 nM | DMS0112 (bispecific antibody) EVQLLESGGGLVQPGGSLRLSCAASGFTFVKYSMGWVRQAPGKGLEWVSQISNTADRTYYAHSVKGRFTISRDNSKNTLYLQMNSLRAEDTAVYYCAIYTGRWVPFEYWGQGTLVTVSSASTDIQMTQSPSSLSASVGDRVTITCRASRPIGTMLSWYQQKPGKAPKLLILFGSRLQSGVPSRFSGSGSGTDFTLTISSLQPEDFATYYCAQAGTHPTTFGQGTKVEIKR
 | 1.4 nM | DMS0118 (bispecific antibody) EVQLLESGGGLVQPGGSLRLSCAASGFTFVKYSMGWVRQAPGKGLEWVSQISNTADRTYYAHSVKGRFTISRDNSKNTLYLQMNSLRAEDTAVYYCAIYTGRWVPFEYWGQGTLVTVSSASTSGPSDIQMTQSPSSLSASVGDRVTITCRASQWIGSQLSWYQQKPGKAPKLLIMWRSSLQSGVPSRFSGSGSGTDFTLTISSLQPEDFATYYCAQGLMKPMTFGQGTKVEIKR
6 nM |  | DMS0182 (bispecific antibody) EVQLLESGGGLVQPGGSLRLSCAASGFTFVKYSMGWVRQAPGKGPEWVSQISNTGDRTYYADSVKGRFTISRDNSKNTLYLQMNSLRAEDTAVYYCAIYTGRWEPFDYWGQGTLVTVSSASTDIQMTQSPSSLSASVGDRVTITCRASRPIGTTLSWYQQKPGKAPKLLIWFGSRLQSGVPSRFSGSGSGTDFTLTISSLQPEDFATYYCAQAGTHPTTFGQGTKVEIKRAAAEQKLISEEDLN
20 nM |  | DMS0186 (bispecific antibody) EVQLLESGGGLVQPGGSLRLSCAASGFTFVKYSMGWVRQAPGKGPEWVSQISNTGDRTYYADSVKGRFTISRDNSKNTLYLQMNSLRAEDTAVYYCAIYTGRWEPFDYWGQGTLVTVSSASTDIQMTQSPSSLSASVGDRVTITCRASRPIGTMLSWYQQKPGKAPKLLILFGSRLQSGVPSRFSGSGSGTDFTLTISSLQPEDFATYYCAQAGTHPTTFGQGTKVEIKRAAAEQKLISEEDLN
19 nM |  | DMS0184 (bispecific antibody) EVQLLESGGGLVQPGGSLRLSCAASGFTFVKYSMGWVRQAPGKGPEWVSQISNTGDRTYYADSVKGRFTISRDNSKNTLYLQMNSLRAEDTAVYYCAIYTGRWEPFDYWGQGTLVTVSSASTSGPSDIQMTQSPSSLSASVGDRVTITCRASRPIGTTLSWYQQKPGKAPKLLIWFGSRLQSGVPSRFSGSGSGTDFTLTISSLQPEDFATYYCAQAGTHPTTFGQGTKVEIKR
 | 1.7 nM | DMS0115 (bispecific antibody) EVQLLESGGGLVQPGGSLRLSCAASGFTFVKYSMGWVRQAPGKGLEWVSQISNTADRTYYAHSVKGRFTISRDNSKNTLYLQMNSLRAEDTAVYYCAIYTGRWVPFEYWGQGTLVTVSSASTSGPSDIQMTQSPSSLSASVGDRVTITCRASRPIGTTLSWYQQKPGKAPKLLILWNSRLQSGVPSRFSGSGSGTDFTLTISSLQPEDFATYYCAQAGTHPTTFGQGTKVEIKR
 | 1.7 nM | DMS0116 (bispecific antibody) EVQLLESGGGLVQPGGSLRLSCAASGFTFVKYSMGWVRQAPGKGLEWVSQISNTADRTYYAHSVKGRFTISRDNSKNTLYLQMNSLRAEDTAVYYCAIYTGRWVPFEYWGQGTLVTVSSASTSGPSDIQMTQSPSSLSASVGDRVTITCRASRPIGTMLSWYQQKPGKAPKLLILFGSRLQSGVPSRFSGSGSGTDFTLTISSLQPEDFATYYCAQAGTHPTTFGQGTKVEIKR
